Numbering of substitutions follows the chain as printed.
B1: antibody 1671 (antibody, V domains shown)
VH: EVQLVESGGGLVKPGGSLRLSCAASGFTFSTYNMNWVRQAPGKGLEWVSSISSNSNYIYYADSMKGRFTISRDNAKNSLYLQMNSLRAEDTAVYYCARDMDPLPYFDWLLYAFDVWGQGTMVTVSS
VL: EIVLTQSPGTLSLSPGERATLSCRASQSVSGSYLAWYQQKPGQAPRLLIYGASSRATGIPDRFSGSGSGTDFTLTISRLEPEDFAVYYCQQYGSPIFTFGPGTKVDIK
B2: antibody 1238 (antibody, V domains shown)
VH: QVQLVQSGSELKKPGASVKVSCKASGYTFTNYGMNWVRQAPGQGLEWMGWINTNTGNPTNAQGFTGRFVFSLDTSVSTAYLQINSLKGEDTAVYYCARVADTGEMDVWGQGTTVTVSS
VL: SYELTQPPSVSVSPGQTARITCSGDALPKQYAYWYQQKPGQAPVLVIYKDSERPSGIPERFSGSSSGTTVTLTISGVQAEDEADYYCQSADSSGSYNWVFGGGTKLTIL
B3: antibody 2598 (antibody, V domains shown)
VH: QVQLQESGPGLVKPSGTLSLTCVVSGGSISSSNWWSWVRQPPGKGLEWIGETFHSGSFNYNPSLKSRVTISVDKSKNQFSLKLSSVTAADTAIYYCATTRVGYEGHFYYYGMDVWGQGTTVTVSS
VL: DIQMTQSPSSVSASVGDRVTITCRASQGISSWLAWYQQKPGKAPKLLIYAASSLQSGVPSRFSGSGSGTDFTLTISSLQPEDFATYYCQQANRFPWTFGQGTKVEIK
B4: antibody 2646 (antibody, V domains shown)
VH: QVQLVQSGAEVKKPGASVKVSCKVSGYTLTELSIHWVRQAPGKGLEWMGGFDPEDAETIYAQKFQGRVTMTEDTSTDTAYMELSSLRSEDTAVYYCATATAVAGTVFNYQYHYGLDFWGQGTTVTVSS
VL: not shown
B5: antibody 2019 (antibody, V domains shown)
VH: QVQLVESGGGVVQPGGSLSLSCAASGLSFSSYGMHWVRQAPGKGLEWVAFIRYDVSNKYYADSVKGRFTISRDNSKNTLYLQMNSLRVEDTAVYYCATWAPLDDGMDVWGQGTTVTVSS
VL: B2 VL with S51T, A90G, S95T, Y96F, N97Y, W98V, I108V
B6: antibody 2866 (antibody, V domains shown)
VH: QVQLVQSGAEVKKPGSSVKVSCKASGGTFSSYSISWVRQAPGQGLEWMGGLAPIFHTPNYAQKFQGRVTITADESTSTAYMELSSLRSEDTAVYYCARVAGAGWGVYGAFDYWGQGTLVTVSS
VL: not shown
B7: antibody 2854 (antibody, V domains shown)
VH: QVQLVQSGAEVKKPGSSVKVSCKASGGTFSSYAISWVRQAPGQGLEWMGGIIPIFHTANYAQKFQGRVTITADESTSTTYVELSSLRSEDTAMYYCATLPITIFGEEYSFDNWGQGTLVTVSS
VL: DVVMTQSPLSLPVTLGQPASISCRSSQSLVHSDGNTYLSWFQQRPGQSPRRLIYKVSDRDSGVPDRFSGSGSGTDFTLKISRVEAEDVGIYYCMQGTHWPPLTFGGGTKVEIK
B8: antibody 1814 (antibody, V domains shown)
VH: QVQLQESGPGLVKPSETLSLTCSVSGGSINYYYWSWIRQTPGQGLEWIGFIYSSGTTNYNPSLKSRVTMSKDTAKKQFSLKLTSVTAADSAVYYCARHSRSCTNGVCQTYYYYALDVWGHGTTVTVSS
VL: QSVLTQPPSVSGAPGQRVTISCTGSGSNIGSGYDVHWYQQLPGRAPKLLIYRNRNRPSGVPDRFSGSKSGTSASLAIAGLQSEDEGDYFCQSYDGRLGESAVFGGGTRLTVL
B9: antibody 1815 (antibody, V domains shown)
VH: B8 VH with Q39K, T40S, Q43K, T68S, K71I, D72G, A74S, K76R, T83S
VL: QSVLTQPPSVSGAPGQRVTISCTGSSSNIGAGYDVHWYQQLPGTAPKLLIYANTHRPSGVPDRFSASKSGTSASLAIAGLQAEDEGDYYCQSYDGSLSESAVFGGGTRLTVL
B10: antibody 1871 (antibody, V domains shown)
VH: EVQLVESGGGLVKPGGSLRLSCVASGFSFSIYSMNWVRQAPGKGLEWVSYISSSSSYKYYADSVKGRFSVSRDNAKNSLYLQLNGLRAEDTAVYYCARDGYCPKGVCTYYGMDVWGQGTTVTVSA
VL: EIVMTQSPATLSVSPGERVTLSCRASQSVRSRLAWFQQKPGQAPRLLIYDASIRATGIPARFSGSGSGTEFTLIISSLQSEDFAVYYCQQYDNWPPAYTFGQGTKLEIK
B11: antibody 1823 (antibody, V domains shown)
VH: B10 VH with S30G, I31L, S33T, S55T, F68V, A88V, K104N, V106I
VL: EIVMTQSPATLSVSPGERATLSCRASQSVSSNLAWYQQKPGQAPRLLIYGASTRATGIPARFSGSGSGTEFTLTITGLQSEDFAVYYCQQYDKWPPAYSFGQGTKVEIK
B12: antibody 937 (antibody, V domains shown)
VH: EVQLVESGGGLVQPGRSLRLSCAASGFTFDDYAMHWVRQAPGKGLEWVSGISWNSGSIGYADSVKGRFTISRDNAKNSLYLQMNSLKPEDTALYYCAKSTTSCYNGSQCPTKRPKPLESWGQGTLVIVSA
VL: DIQMTQSPSTLSAFVGDRVTITCRASQSINNWLAWYQQKPGEVPKLLIYKASSLENGVPSRFSGSGFGTEFTLTISSLQPDDFAIYYCQQYYSHSHTFGQGTKLEIK
B13: antibody 2025 (antibody, V domains shown)
VH: QVQLVQSGAEVKKPGASVKVSCKVSGYTLIELSMHWVRQAPGKGLEWMGGFDPEDVETIYAQKFQGRVTMTEDTSTDTAYMELSSLRSEDTAVYYCATAYAVQWRGMIGYWGQGTLVTVSS
VL: QSALTQPASVSGSPGQSITISCTGTSSDVGSYNLVSWYQQHPGKAPKLMIYEVSKRPSGVSNRFSGSKSGNTASLTISGLQAEDEADYYCSSYAGSSTFSYVFGTGTKVTVL
B14: antibody 2788 (antibody, V domains shown)
VH: QVQLVQSGAEVKKPGASVKVSCKVSGYTLIELSMHWVRQAPGKGLEWMGGFDPEGAETIYAQKFQGRVTMTEDTSTDTAYMELSSLRSDDTAVYYCATGPAVFAANWFDPWGQGTLVTVSS
VL: QSALTQPPSASGSPGQSVTISCTGTSSDIGNYNNVSWYQQHPGKAPKLMIYDVIKRPSGVPDRFSGSKSGNTASLTVSGLQAEDEADYYCSSYAGKSYVFGTGTKVTVL

Target: T1, S1 subunit of the SARS-CoV-2 spike protein, WA01/2020 strain (SARS-CoV-2, WA01/2020 strain, UniProt P0DTC2 16-685)
Experiment: not given

| Binder | Kd [nM] |
| --- | --- |
| B1 | 0.0506 |
| B2 | 0.027 |
| B3 | 0.00823 |
| B4 | 0.00296 |

Target: T2, SARS-CoV-2 spike (S) protein trimer, WA01/2020 strain (SARS-CoV-2, WA01/2020 strain, UniProt P0DTC2 16-1213)
Experiment: not given

| Binder | Kd [nM] |
| --- | --- |
| B5 | 0.057 |
| B6 | 0.154 |
| B7 | 0.112 |

Target: SARS-CoV-2 spike protein, WA1/2020, borne on lentiviral pseudovirus (SARS-CoV-2, WA01/2020 strain, UniProt P0DTC2 14-1273)
Experiment: cell-based or functional assay

| Binder | Pseudo Neut, WA1/2020 IC50 (pM) |
| --- | --- |
| B8 | 171 |
| B9 | 10.2 |
| B10 | 440 |

Target: SARS-CoV (2003) spike protein borne on lentiviral pseudovirus (SARS-CoV (2003), UniProt P59594 14-1255)
Experiment: cell-based or functional assay

| Binder | Pseudo Neut, SARS-CoV 2003 IC50 [nM] |
| --- | --- |
| B8 | 6.5 |
| B9 | 26 |
| B11 | 210 |
| B10 | 30 |

Target: T1, S1 subunit of the SARS-CoV-2 spike …
Experiment: ELISA, antibody at 0.1 ug/mL

| Binder | binding result |
| --- | --- |
| B5 | no binding (tested: 0.1 ug/mL) |
| B6 | no binding (tested: 0.1 ug/mL) |
| B7 | no binding (tested: 0.1 ug/mL) |

Target: T3, S2 subunit of the SARS-CoV-2 spike protein, WA01/2020 strain (SARS-CoV-2, WA01/2020 strain, UniProt P0DTC2 686-1213)
Experiment: ELISA, antibody at 0.1 ug/mL

| Binder | binding result |
| --- | --- |
| B5 | no binding (tested: 0.1 ug/mL) |
| B2 | no binding (tested: 0.1 ug/mL) |
| B12 | no binding (tested: 0.1 ug/mL) |
| B6 | no binding (tested: 0.1 ug/mL) |
| B13 | no binding (tested: 0.1 ug/mL) |
| B7 | no binding (tested: 0.1 ug/mL) |
| B14 | no binding (tested: 0.1 ug/mL) |

Target: T4, SARS-CoV-2 nucleocapsid (N) protein (SARS-CoV-2, UniProt P0DTC9 1-419)
Experiment: ELISA, antibody at 0.1 ug/mL

| Binder | binding result |
| --- | --- |
| B5 | no binding (tested: 0.1 ug/mL) |
| B2 | no binding (tested: 0.1 ug/mL) |
| B12 | no binding (tested: 0.1 ug/mL) |
| B6 | no binding (tested: 0.1 ug/mL) |
| B13 | no binding (tested: 0.1 ug/mL) |
| B7 | no binding (tested: 0.1 ug/mL) |
| B14 | no binding (tested: 0.1 ug/mL) |

Target: T3, S2 subunit of the SARS-CoV-2 spike …
Experiment: ELISA on S2 (S2 Binding EC50)

| Binder | EC50 [nM] |
| --- | --- |
| B8 | 0.077 |
| B9 | 0.127 |
| B11 | 0.614 |
| B10 | 0.103 |

Target: T1, S1 subunit of the SARS-CoV-2 spike …
Experiment: dose-response ELISA on coated antigen

| Binder | EC50 [nM] |
| --- | --- |
| B2 | 0.028 |
| B14 | 0.058 |
| B3 | 0.084 |
| B4 | 0.033 |

Target: T2, SARS-CoV-2 spike (S) protein trimer, …
Experiment: dose-response ELISA on coated antigen

| Binder | EC50 [nM] |
| --- | --- |
| B5 | 0.024 |
| B2 | 0.069 |
| B6 | 0.182 |
| B7 | 0.152 |
| B14 | 0.021 |
| B3 | 0.043 |
| B4 | 0.024 |

Target: T1, S1 subunit of the SARS-CoV-2 spike …
Experiment: ELISA screening, antibody concentration not given

| Binder | binding result |
| --- | --- |
| B8 | no binding (tested: not printed) |
| B9 | no binding (tested: not printed) |
| B10 | no binding (tested: not printed) |

Target: T4, SARS-CoV-2 nucleocapsid (N) protein
Experiment: ELISA screening, antibody concentration not given

| Binder | binding result |
| --- | --- |
| B8 | no binding (tested: not printed) |
| B9 | no binding (tested: not printed) |
| B10 | no binding (tested: not printed) |

Target: T3, S2 subunit of the SARS-CoV-2 spike …
Experiment: dose-response ELISA; antigen taken from the column 'Structural data'

| Binder | EC50 [nM] |
| --- | --- |
| B8 | 0.077 |
| B9 | 0.127 |
| B11 | 0.614 |
| B10 | 0.103 |

— patent publication US20230382979A1 (ADAPTIVE BIOTECHNOLOGIES, published 2023)
